Consider three molecules from patent US20260167728A1 (published 2026).

Experiment [1] has as its target T1, human CD3 (human, UniProt P07766 23-126). The experiment in a line: Octet, crude lysate. The method, then:
Structural considerations included: possible contact disruption, anticipated steric clashes, side chain charge maintenance and possible pockets filling. Stability and affinity of the individually expressed molecules in the form of crude lysate was evaluated by Octet (ForteBio).

The target in experiment [2] is T2, human EGFR (human, UniProt P00533 25-645, limits assumed).
T2 construct: on HT-29 cells in the cytotoxicity assay; also called epidermal growth factor receptor
The experiment can be described thus: BLI, room temperature. As for the experimental part:
Each construct was expressed in small-scale and purified. Thermal stability was determined by Differential Scanning Fluorimetry. Melting temperature (Tₘ) determined by Differential Scanning Fluorimetry experiments described herein were performed either in duplicate or triplicate using GloMelt™ dye and QuantStudio5™. GloMelt™ dye undergoes fluorescence enhancement upon binding to hydrophobic regions of denatured proteins. Therefore, the dye can be used to detect protein unfolding or measure thermal stability. GloMelt™ dye is optimized for detection in the SYBR® Green channel of qPCR instruments. The Differential Scanning Fluorimetry experiments were performed in 96-well plates with 10 μg protein/reaction (equal to 0.5 mg/mL final protein concentration), reaction buffer, and GloMelt™ 10× dye according to manufacturer's instructions. Fluorescence of 96-well plates was read and melt curve plots were generated in the QuantStudio5™ qPCR system. Binding affinity was analyzed with bio-layer interferometry at room temperature with human EGFR as the antigen.
(In BLI a coated tip is dipped into the sample, and binding shifts an interference pattern.)

The target in experiment [3] is T2, human EGFR. The experiment in a line: cell-based or functional assay.
The target of experiment [4] is T1, human CD3. The experiment in a line: method not stated.

Substitutions are numbered along the chain they refer to.

T1 sequence (P07766 23-126 limits assumed): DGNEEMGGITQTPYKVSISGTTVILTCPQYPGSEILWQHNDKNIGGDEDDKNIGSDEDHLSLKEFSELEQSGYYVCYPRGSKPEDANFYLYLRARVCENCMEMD

B1: AC3364 (CD3.23-L7, WT) (bispecific antibody, V domains shown)
VH: EVQLLESGGGIVQPGGSLKLSCAASGFTFNTYAMNWVRQAPGKGLEWVARIRSKYNNYATYYADSVKDRFTISRDDSKNTVYLQMNNLKTEDTAVYYCVRHENFGNSYVSWFAHWGQGTLVTVSS
VL: ELVVTQEPSLTVSPGGTVTLTCRSSNGAVTSSNYANWVQQKPGQAPRGLIGGTNKRAPGTPARFSGSLLGGKAALTLSGVQPEDEAVYYCALWYPNLWVFGGGTKLTVL
notes: Pool 1 format (remarks)
As a reminder, the Kd is the equilibrium constant for the complex coming apart. Lower therefore signals tighter binding. Consider B1, for which, in the experiment with human CD3 [1], the Kd is 8.5 nM.

B2: AC2908 (EGFR.60/CD3.23 paTCE) (bispecific antibody)
scFv 1: EIVLTQSPGTLSLSPGERATLSCQASQDISNYLNWYQQKPGQAPRLLIYDASNLETGIPDRFSGSGSGTDFTLTISRLEPEDFAVYYCQHFDHLPLAFGQGTKVEIKGATPPETGAETESPGETTGGSAESEPPGEGQVQLQQWGAGLLKPSETLSLTCAVYGGSVSSGDYYWTWIRQPPGKGLEWIGHIYYSGNTNYNPSLKSRVTISVDTSKNQFSLKLSSVTAADTAVYYCARDRVTGAFDIWGQGTLVTVSS
scFv 2: ELVVTQEPSLTVSPGGTVTLTCRSSNGAVTSSNYANWVQQKPGQAPRGLIGGTNKRAPGTPARFSGSLLGGKAALTLSGVQPEDEAVYYCALWYPNLWVFGGGTKLTVLGATPPETGAETESPGETTGGSAESEPPGEGEVQLLESGGGIVQPGGSLKLSCAASGFTFNTYAMNWVRQAPGKGLEWVARIRSKYNNYATYYADSVKDRFTISRDDSKNTVYLQMNNLKTEDTAVYYCVRHENFGNSYVSWFAHWGQGTLVTVSS
notes: EGFR library format (remarks)
Consider B2, for which the Kd with human EGFR [2] is 7.3 nM; with human CD3 [4], ~203 nM. In addition, the “EC50 HT-29 (pM), in vitro cytotoxicity, E:T 5:1” value with human EGFR [3] is 94 pM.

B3: AC2920 (EGFR.72/CD3.23 paTCE) (bispecific antibody)
scFv 1: B2 scFv 1 with G9A, D60A, R77S
scFv 2: B2 scFv 2
notes: EGFR library format (remarks)
In the case of B3, the Kd in the experiment with human EGFR [2] is 4.4 nM; with human CD3 [4], ~203 nM. The “EC50 HT-29 (pM), in vitro cytotoxicity, E:T 5:1” value with human EGFR [3] came out at 85 pM.
